Read-outs that look alike come from different tables or passages of the source.
Legend:
[1] = target: T1, full-length human Robo 4 (on cells) (human, UniProt Q8WZ75 28-1007); assay: cell-based or functional assay
T1 sequence: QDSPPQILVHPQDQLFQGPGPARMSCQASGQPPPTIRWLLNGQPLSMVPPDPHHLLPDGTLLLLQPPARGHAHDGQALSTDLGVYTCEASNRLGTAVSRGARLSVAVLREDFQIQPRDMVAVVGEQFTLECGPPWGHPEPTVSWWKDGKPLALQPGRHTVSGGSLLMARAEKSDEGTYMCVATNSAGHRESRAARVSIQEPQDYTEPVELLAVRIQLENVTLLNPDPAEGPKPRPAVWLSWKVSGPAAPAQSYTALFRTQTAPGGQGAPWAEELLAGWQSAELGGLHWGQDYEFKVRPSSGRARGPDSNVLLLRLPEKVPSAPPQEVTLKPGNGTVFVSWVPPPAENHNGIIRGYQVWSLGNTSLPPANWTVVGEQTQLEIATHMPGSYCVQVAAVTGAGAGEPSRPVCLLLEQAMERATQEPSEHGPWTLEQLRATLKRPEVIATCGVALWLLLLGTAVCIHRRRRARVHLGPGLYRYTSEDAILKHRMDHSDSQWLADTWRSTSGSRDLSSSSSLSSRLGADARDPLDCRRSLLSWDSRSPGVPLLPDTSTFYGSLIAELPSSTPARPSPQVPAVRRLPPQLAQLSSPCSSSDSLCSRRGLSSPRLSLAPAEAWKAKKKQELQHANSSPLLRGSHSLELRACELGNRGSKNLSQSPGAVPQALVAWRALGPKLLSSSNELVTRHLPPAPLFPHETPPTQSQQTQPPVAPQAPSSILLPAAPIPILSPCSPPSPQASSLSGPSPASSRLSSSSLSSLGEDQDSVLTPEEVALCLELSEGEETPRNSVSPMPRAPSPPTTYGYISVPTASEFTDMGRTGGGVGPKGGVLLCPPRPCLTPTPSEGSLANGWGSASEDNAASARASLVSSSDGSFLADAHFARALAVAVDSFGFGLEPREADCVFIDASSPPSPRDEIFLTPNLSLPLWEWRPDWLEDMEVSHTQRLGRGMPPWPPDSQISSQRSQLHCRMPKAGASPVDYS

[2] = target: T1, full-length human Robo 4 (on cells); assay: cell-based or functional assay; remark: listed apart in the source
[3] = target: T2, mouse Robo 4 on MS-1 mouse endothelial cells (mouse, UniProt Q8C310 28-1012); assay: cell-based or functional assay
T2 sequence: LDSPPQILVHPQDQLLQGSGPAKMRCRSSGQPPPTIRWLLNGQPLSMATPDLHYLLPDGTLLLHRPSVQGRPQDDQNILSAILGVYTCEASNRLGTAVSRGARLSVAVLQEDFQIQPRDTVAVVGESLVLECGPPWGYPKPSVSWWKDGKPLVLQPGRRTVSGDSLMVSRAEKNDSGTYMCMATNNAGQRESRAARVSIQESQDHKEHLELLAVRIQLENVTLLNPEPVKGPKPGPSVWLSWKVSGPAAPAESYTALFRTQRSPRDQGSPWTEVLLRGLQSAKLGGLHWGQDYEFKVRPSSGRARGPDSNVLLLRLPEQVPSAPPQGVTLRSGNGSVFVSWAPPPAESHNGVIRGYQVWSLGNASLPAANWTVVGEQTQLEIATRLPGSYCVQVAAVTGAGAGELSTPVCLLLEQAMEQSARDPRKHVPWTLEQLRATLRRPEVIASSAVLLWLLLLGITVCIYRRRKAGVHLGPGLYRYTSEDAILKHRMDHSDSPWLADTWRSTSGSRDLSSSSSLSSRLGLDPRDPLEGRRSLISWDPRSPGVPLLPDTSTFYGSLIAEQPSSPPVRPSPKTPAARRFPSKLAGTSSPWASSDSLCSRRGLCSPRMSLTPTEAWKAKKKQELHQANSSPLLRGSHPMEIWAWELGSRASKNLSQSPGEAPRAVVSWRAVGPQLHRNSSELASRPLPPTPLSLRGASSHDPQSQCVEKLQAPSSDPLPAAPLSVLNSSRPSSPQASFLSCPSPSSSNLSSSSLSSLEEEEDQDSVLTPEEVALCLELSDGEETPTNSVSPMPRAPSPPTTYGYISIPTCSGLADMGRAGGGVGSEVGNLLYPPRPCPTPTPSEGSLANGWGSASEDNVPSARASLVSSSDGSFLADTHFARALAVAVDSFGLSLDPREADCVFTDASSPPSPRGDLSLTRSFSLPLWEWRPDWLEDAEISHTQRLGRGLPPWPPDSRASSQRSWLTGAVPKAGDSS

[4] = target: T1, full-length human Robo 4 (on cells); assay: cell-based or functional assay; remark: listed apart in the source
[5] = target: T2, mouse Robo 4 on MS-1 mouse endothelial …; assay: cell-based or functional assay; remark: listed apart in the source
[6] = target: T2, mouse Robo 4 on MS-1 mouse endothelial …; assay: cell-based or functional assay; remark: listed apart in the source
[7] = target: T3, recombinant human Robo1 antigen (human, UniProt Q9Y6N7 59-886, limits assumed); assay: ELISA, hybridoma supernatant
T3 construct: limits of the construct and tags are not described in the text; also called human Robol
T3 sequence (Q9Y6N7 other isoform, or with tags, fused parts or gaps limits assumed): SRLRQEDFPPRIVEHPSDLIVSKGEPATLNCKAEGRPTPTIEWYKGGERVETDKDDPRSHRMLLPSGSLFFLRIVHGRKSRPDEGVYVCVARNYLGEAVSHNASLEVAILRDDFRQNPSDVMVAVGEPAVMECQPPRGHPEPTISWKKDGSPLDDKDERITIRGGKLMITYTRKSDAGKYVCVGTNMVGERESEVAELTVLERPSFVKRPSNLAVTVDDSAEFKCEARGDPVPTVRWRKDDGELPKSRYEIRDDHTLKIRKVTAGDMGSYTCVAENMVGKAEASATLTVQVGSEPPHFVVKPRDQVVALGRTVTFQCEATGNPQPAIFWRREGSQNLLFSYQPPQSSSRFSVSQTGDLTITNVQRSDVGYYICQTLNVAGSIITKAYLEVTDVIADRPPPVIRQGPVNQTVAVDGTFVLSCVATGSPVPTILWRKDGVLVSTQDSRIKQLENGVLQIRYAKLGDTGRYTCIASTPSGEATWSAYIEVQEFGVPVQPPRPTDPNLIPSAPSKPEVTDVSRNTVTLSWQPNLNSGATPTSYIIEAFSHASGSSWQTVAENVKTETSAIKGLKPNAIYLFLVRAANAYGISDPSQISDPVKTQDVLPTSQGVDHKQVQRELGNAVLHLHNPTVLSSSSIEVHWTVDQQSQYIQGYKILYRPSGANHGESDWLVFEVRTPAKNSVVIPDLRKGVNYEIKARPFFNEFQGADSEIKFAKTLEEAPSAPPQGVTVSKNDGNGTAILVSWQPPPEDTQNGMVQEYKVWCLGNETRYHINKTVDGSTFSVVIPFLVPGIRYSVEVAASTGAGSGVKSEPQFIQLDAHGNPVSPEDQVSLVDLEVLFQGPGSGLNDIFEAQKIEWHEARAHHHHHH

B1: Molecule J, 1+1 Fab-CrossFab (VH/VL exchange in CD3 binder, CD3 binder V9, Robo 4 binder 01F05) (bispecific antibody)
chain 1: QVQLKQSGAELVKPGASVKISCKTSVYTFTYGYMHWVEQKPGQGLEWIGRIDPDSGNSMYNQKFQGRATLTRDKSSSTVYMELRSLTSEDSAVYYCARSMRYSGYRDYALDLWGQGTQVTVSSASTKGPSVFPLAPSSKSTSGGTAALGCLVKDYFPEPVTVSWNSGALTSGVHTFPAVLQSSGLYSLSSVVTVPSSSLGTQTYICNVNHKPSNTKVDKKVEPKSCDGGGGSGGGGSDIQMTQSPSSLSASVGDRVTITCRASQDIRNYLNWYQQKPGKAPKLLIYYTSRLESGVPSRFSGSGSGTDYTLTISSLQPEDFATYYCQQGNTLPWTFGQGTKVEIKSSASTKGPSVFPLAPSSKSTSGGTAALGCLVKDYFPEPVTVSWNSGALTSGVHTFPAVLQSSGLYSLSSVVTVPSSSLGTQTYICNVNHKPSNTKVDKKVEPKSC
chain 2: QLVLTQSPSASASLGASVKLTCTLSSQHSSYGITWLQQHPDKAPKYVMYLKSDGSHTKGADIPDRFSGSSSGVHRYLSISNVQPEDEAIYFCVTYDSTHVFGSGTQLTVLGQPKAAPSVTLFPPSSEELQANKATLVCLISDFYPGAVTVAWKADSSPVKAGVETTTPSKQSNNKYAASSYLSLTPEQWKSHRSYSCQVTHEGSTVEKTVAPTECS
chain 3: EVQLVESGGGLVQPGGSLRLSCAASGYSFTGYTMNWVRQAPGKGLEWVALINPYKGVSTYNQKFKDRFTISVDKSKNTAYLQMNSLRAEDTAVYYCARSGYYGDSDWYFDVWGQGTLVTVSSASVAAPSVFIFPPSDEQLKSGTASVVCLLNNFYPREAKVQWKVDNALQSGNSQESVTEQDSKDSTYSLSSTLTLSKADYEKHKVYACEVTHQGLSSPVTKSFNRGEC
- EC50 of T-cell mediated killing of HUVECs (LDH release, human PBMCs, E:T 10:1), 24 h [1]: 105 pM
- EC50 of T-cell mediated killing of HUVECs (LDH release, human PBMCs, E:T 10:1), 48 h [1]: 47.2 pM
- EC50 of T-cell mediated killing of HUVECs (LDH release, human PBMCs, E:T 10:1), 24 h [2]: 204 pM
- EC50 of T-cell mediated killing of HUVECs (LDH release, human PBMCs, E:T 10:1), 48 h [2]: 127 pM
- EC50 of T-cell mediated killing of MS-1 cells (LDH release, human PBMCs, E:T 10:1), 24 h [3]: 294 pM
- EC50 of T-cell mediated killing of MS-1 cells (LDH release, human PBMCs, E:T 10:1), 48 h [3]: 106 pM
- EC50 of T-cell mediated killing of HUVECs (LDH release, human pan T cells, E:T 5:1, 22 h) [4]: 26 pM
- EC50 of T-cell mediated killing of MS-1 cells (LDH release, human pan T cells, E:T 5:1, 17 h) [5]: 4 pM

B2: Molecule K, 1+1 Fab-CrossFab (VH/VL exchange in CD3 binder, CD3 binder 2C11, Robo 4 binder 01F05) (bispecific antibody)
chain 1: DIQMTQSPSSLPASLGDRVTINCQASQDISNYLNWYQQKPGKAPKLLIYYTNKLADGVPSRFSGSGSGRDSSFTISSLESEDIGSYYCQQYYNYPWTFGPGTKLEIKSSASTKGPSVFPLAPSSKSTSGGTAALGCLVKDYFPEPVTVSWNSGALTSGVHTFPAVLQSSGLYSLSSVVTVPSSSLGTQTYICNVNHKPSNTKVDKKVEPKSCGGGGSGGGGSQVQLKQSGAELVKPGASVKISCKTSVYTFTYGYMHWVEQKPGQGLEWIGRIDPDSGNSMYNQKFQGRATLTRDKSSSTVYMELRSLTSEDSAVYYCARSMRYSGYRDYALDLWGQGTQVTVSSASTKGPSVFPLAPSSKSTSGGTAALGCLVKDYFPEPVTVSWNSGALTSGVHTFPAVLQSSGLYSLSSVVTVPSSSLGTQTYICNVNHKPSNTKVDKKVEPKSCD
chain 2: QLVLTQSPSASASLGASVKLTCTLSSQHSSYGITWLQQHPDKAPKYVMYLKSDGSHTKGADIPDRFSGSSSGVHRYLSISNVQPEDEAIYFCVTYDSTHVFGSGTQLTVLGQPKAAPSVTLFPPSSEELQANKATLVCLISDFYPGAVTVAWKADSSPVKAGVETTTPSKQSNNKYAASSYLSLTPEQWKSHRSYSCQVTHEGSTVEKTVAPTECS
chain 3: EVQLVESGGGLVQPGKSLKLSCEASGFTFSGYGMHWVRQAPGRGLESVAYITSSSINIKYADAVKGRFTVSRDNAKNLLFLQMNILKSEDTAMYYCARFDWDKNYWGQGTMVTVSSASVAAPSVFIFPPSDEQLKSGTASVVCLLNNFYPREAKVQWKVDNALQSGNSQESVTEQDSKDSTYSLSSTLTLSKADYEKHKVYACEVTHQGLSSPVTKSFNRGEC
- EC50 of T cell mediated killing of MS-1 cells by murine splenocytes (LDH release, E:T 10:1, 48 and 72 h) [6]: 1300 pM

B3: 01E06 hybridoma clone (Armenian hamster IgG, supernatant) (antibody, V domains shown)
VH: EVQLVESGGGLSQPGNSLKLSCEASGFTFRNYDMSWVRQAPGKGLEWVAYISSGGGPIYYVDAVKGRFTISRDNAKNLLFLQMNNLRSEDTAVYYCARDLADIGVFDYWGQGTMVTVSS
VL: DFKMTQSPDILSPSLGESVTITCQSSQNIYSNLAWYQQKPGEHPKLLIYTASILADGIPSRFTGSGSGTQFSLKISSLQPDDVANYYCQQYVYYRTFGPGTKLEIK
- binding result [7]: no binding

B4: 01F05 hybridoma clone (Armenian hamster IgG, supernatant) (antibody, V domains shown)
VH: QVQLKQSGAELVKPGASVKISCKTSVYTFTYGYMHWVEQKPGQGLEWIGRIDPDSGNSMYNQKFQGRATLTRDKSSSTVYMELRSLTSEDSAVYYCARSMRYSGYRDYALDLWGQGTQVTVSS
VL: QLVLTQSPSASASLGASVKLTCTLSSQHSSYGITWLQQHPDKAPKYVMYLKSDGSHTKGADIPDRFSGSSSGVHRYLSISNVQPEDEAIYFCVTYDSTHVFGSGTQLTVLG
- binding result [7]: no binding

B5: 01F09 hybridoma clone (Armenian hamster IgG, supernatant) (antibody, V domains shown)
VH: QIQLQESGPGLVKPSQSLSLTCSVTGYSISSGSLWTWIRQFPGNNLEWMGYISYAGGIDYNPSLTSRISITRDTSRNQFFLQLESVTTQDTATYYCATPGGYPFHFDYWGQGTMVTVSS
VL: QPVLTQSPSASASLGASVKLTCTLNSQFSTYNIGWYQQHRDKPPKYVMFVKGDGGHSKADGIPDRFSGSSSGADRYLTISNIQAEDEAIYFCGADYNNAGQYGCVFGSGTHFTVLG
- binding result [7]: no binding
